# Source: PMC5962637, “Simultaneous cell disruption and semi-quantitative activity assays for high-throughput screening of thermostable L-asparaginases” (Scientific Reports, 2018)
# B1: P. yayanosii CH1 L-asparaginase (pyasnase) (Pyrococcus yayanosii CH1) (protein)
# chain: MRLLILGMGGTIASVPSEEGYESSLSVEEILRLAGLELKWEVEARDLLNIDSTLIQPEDWVLLAETVFEAFEEFDGVVITHGTDTLAYTASMLSFMVRNPPVPIVLTGAMRPITEPGSDAPRNLWTALRFAIEGVPGVYVAFMDKVMLGVRVSKVRAVGLNAFQSINYPDIAYVKGNRIHWNAKPPKLEGEPVLDTRHEPRVLVLRLVPGMEGDVLEAALELGYRGIVLEGYGVGGIPYRGRDLLDVVRRVATEIPVVMTTQTLYDGVDLTKYKVGRKALEVGVIPAGDMTKEATITKLMWILGHTRDVGEVRRLMLTNMVGEIGKSA
# notes: C-terminal His-tag (in primer R1); codon-optimised synthetic gene, pMA5, Bacillus subtilis 168; homodimer (homology model)
# Substrate: NC(=O)C[C@H](N)C(=O)O
# Test: ammonia release with Nessler's reagent, A450; Michaelis-Menten plot
# Type: biochemical, Pyrococcus yayanosii
# Conditions: 50 mM Tris-HCl pH 8.0, 95 °C, substrate range 0.05-2.0 mM
protein,measurement,value
B1,Km,6.5 mM
